Data published in publication PMC9672333.

Each substance was assayed against Omicron BA.1 spike RBD (UniProt P0DTC2) (SARS-CoV-2) (UniProt P0DTC2) (assay: microfluidic diffusional sizing (MDS)).

| Substance | fold reduction of binding affinity relative to wild type RBD [fold] |
| --- | --- |
| Casirivimab (antibody) | > 100 |
| Cilgavimab Biosimilar (antibody) | > 100 |
| Tixagevimab Biosimilar (antibody) | > 100 |
